Test results from article PMC2764309 (Science (New York, N.Y.), 2009).

Assays:
crystal structure = biological target: the molecule itself; assay: crystal structure
HipA mutant D309Q [1] = biological target: T1, HipA mutant D309Q (Escherichia coli, UniProt P23874 1-440, D309Q); assay: crystal structure
T1 sequence: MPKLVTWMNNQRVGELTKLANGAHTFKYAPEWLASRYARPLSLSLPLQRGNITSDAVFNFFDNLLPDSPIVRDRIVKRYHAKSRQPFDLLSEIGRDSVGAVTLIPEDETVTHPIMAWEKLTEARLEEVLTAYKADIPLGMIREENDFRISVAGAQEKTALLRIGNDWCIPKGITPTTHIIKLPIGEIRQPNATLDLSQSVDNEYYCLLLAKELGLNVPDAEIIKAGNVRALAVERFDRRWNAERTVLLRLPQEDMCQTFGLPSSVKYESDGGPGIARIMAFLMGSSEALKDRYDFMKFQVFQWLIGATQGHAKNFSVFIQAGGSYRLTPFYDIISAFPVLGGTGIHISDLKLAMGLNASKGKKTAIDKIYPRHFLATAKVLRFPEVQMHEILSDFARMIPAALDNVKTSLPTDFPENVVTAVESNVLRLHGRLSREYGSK

HipA mutant D309Q [2] = biological target: T1, HipA mutant D309Q; assay: fluorescence polarisation

B1: HipB (natural protein)
chain: MMSFQKIYSPTQLANAMKLVRQQNGWTQSELAKKIGIKQATISNFENNPDNTTLTTFFKILQSLELSMTLCDAKNASPESTEQQNLEW
For B1, the “stoichiometry N” value (crystal structure) was 2 and the binding result (HipA mutant D309Q [1]) was “binds”.

Binder IREGGRTVGA [EF-Tu peptide IREGGRTVGA] has a Kd (HipA mutant D309Q [2]) of 15 ± 5 µM.
